Data reported in patent publication US20200190136A1, “METHODS FOR GENERATING SMALL MOLECULE DEGRADERS AND DIMERIZERS” (DANA-FARBER CANCER INSTITUTE, INC., priority 2017, published 2020).

What was measured:
[1] = molecular target: His6-DDB1ΔB-His6-CRBN complex (human) (UniProt Q16531); assay: FP lenalidomide-Atto565 displacement from DDB1ΔB-CRBN, dBET23, with and without BRD4BD2
[2] = molecular target: His6-DDB1ΔB-His6-CRBN complex (human) (UniProt Q16531); assay: FP lenalidomide-Atto565 displacement from DDB1ΔB-CRBN, dBET57, with and without BRD4BD2
[3] = molecular target: His6-DDB1ΔB-His6-CRBN complex (human) (UniProt Q16531); assay: FP lenalidomide-Atto565 displacement from DDB1ΔB-CRBN, dBET6, with and without BRD4BD2

Chain of His6-DDB1ΔB-His6-CRBN complex (human) (Q16531 other isoform, or with tags, fused parts or gaps mutant, chain 1 of 2): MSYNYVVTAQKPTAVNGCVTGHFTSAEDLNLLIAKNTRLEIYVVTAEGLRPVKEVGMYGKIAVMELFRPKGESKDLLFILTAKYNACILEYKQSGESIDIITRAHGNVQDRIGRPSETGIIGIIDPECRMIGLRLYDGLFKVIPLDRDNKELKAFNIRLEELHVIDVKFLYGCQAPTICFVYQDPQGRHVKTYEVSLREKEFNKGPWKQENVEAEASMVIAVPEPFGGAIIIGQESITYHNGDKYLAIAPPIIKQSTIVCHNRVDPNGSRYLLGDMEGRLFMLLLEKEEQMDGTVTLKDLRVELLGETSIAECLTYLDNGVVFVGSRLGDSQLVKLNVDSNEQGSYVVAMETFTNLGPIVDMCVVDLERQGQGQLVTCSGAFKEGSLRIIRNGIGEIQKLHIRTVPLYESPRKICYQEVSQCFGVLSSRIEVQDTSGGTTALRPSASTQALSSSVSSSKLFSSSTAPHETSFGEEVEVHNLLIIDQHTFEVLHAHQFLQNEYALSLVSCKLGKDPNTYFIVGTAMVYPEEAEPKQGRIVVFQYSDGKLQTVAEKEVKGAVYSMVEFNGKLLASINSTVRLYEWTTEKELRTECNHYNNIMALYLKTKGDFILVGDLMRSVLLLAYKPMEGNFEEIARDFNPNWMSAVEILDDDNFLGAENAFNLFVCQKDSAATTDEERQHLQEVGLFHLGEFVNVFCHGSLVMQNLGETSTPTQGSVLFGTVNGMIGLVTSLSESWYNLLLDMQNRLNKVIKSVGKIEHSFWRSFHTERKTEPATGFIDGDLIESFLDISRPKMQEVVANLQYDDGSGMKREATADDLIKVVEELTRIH
Chain of His6-DDB1ΔB-His6-CRBN complex (human) (Q96SW2 whole entry, stated change not applied, chain 2 of 2, further chain): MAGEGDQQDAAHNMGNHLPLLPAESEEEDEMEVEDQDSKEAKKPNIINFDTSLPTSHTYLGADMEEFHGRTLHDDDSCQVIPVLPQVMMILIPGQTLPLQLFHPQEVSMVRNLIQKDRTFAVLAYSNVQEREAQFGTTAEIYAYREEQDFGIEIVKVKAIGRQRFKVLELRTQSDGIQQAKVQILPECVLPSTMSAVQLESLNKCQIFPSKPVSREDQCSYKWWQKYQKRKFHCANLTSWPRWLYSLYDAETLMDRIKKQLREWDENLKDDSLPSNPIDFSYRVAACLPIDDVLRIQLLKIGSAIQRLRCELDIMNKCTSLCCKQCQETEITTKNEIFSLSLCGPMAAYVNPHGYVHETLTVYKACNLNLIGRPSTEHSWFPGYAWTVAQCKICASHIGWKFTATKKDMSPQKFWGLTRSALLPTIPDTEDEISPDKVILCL

apparent cooperativity factor αapp (IC50[binary]/IC50[ternary]) [1]: < 0.1 | apparent cooperativity factor αapp (IC50[binary]/IC50[ternary]) [2]: < 0.1 | apparent cooperativity factor αapp (IC50[binary]/IC50[ternary]) [3]: 0.2
Substance: BRD4BD2 (second bromodomain of human BRD4) (from UniProt O60885 333-460)
